Results reported in the supplement of paper PMC11316812.
± gives the standard deviation of the averaged measurements.

Tests used:
MCF7 = test: percentage of EdU-negative (G0-arrested) nuclei per well, 72 h; higher = more G0 arrest; settings: reference: sequence is the full UniProt precursor, the tested protein was the secreted form or ectodomain
hTERT-HMEC = test: as above; settings: reference: sequence is the full UniProt precursor, the tested protein was the secreted form or ectodomain
[1] = protein concentration 0.0187725 µM
[2] = protein concentration 0.187725 µM
[3] = protein concentration 0.0225 µM
[4] = protein concentration 0.0286875 µM
[5] = protein concentration 0.286875 µM
[6] = protein concentration 0.0095 µM
[7] = protein concentration 0.03125 µM
[8] = protein concentration 0.3125 µM
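Also: secreted proteins added to cultured cells, EdU pulse at the end, nuclei found by Hoechst imaging, EdU status from nuclear versus surrounding ring intensity ratio, PBS as neutral control.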

With “MKEYVLLLFLALCSAKPFFSPSHIALKNMMLKDMEDTDDDDDDDDDDDDDDEDNSLFPTREPRSHFFPFDLFPMCPFGCQCYSRVVHCSDLGLTSVPTNIPFDTRMLDLQNNKIKEIKENDFKGLTSLYGLILNNNKLTKIHPKAFLTTKKLRRLYLSHNQLSEIPLNLPKSLAELRIHENKVKKIQKDTFKGMNALHVLEMSANPLDNNGIEPGAFEGVTVFHIRIAEAKLTSVPKGLPPTLLELHLDYNKISTVELEDFKRYKELQRLGLGNNKITDIENGSLANIPRVREIHLENNKLKKIPSGLPELKYLQIIFLHSNSIARVGVNDFCPTVPKMKKSLYSAISLFNNPVKYWEMQPATFRCVLSRMSVQLGNFGM [Q9BXN1]” the “percentage of EdU-negative” value (MCF7; [1]) was 26.18 ± 0.19%, the “percentage of EdU-negative” value (MCF7; [2]) was 26.9 ± 3.7% and the “percentage of EdU-negative” value (hTERT-HMEC; [1]) was 4.7 ± 0.51%. The “percentage of EdU-negative” value (hTERT-HMEC; [2]) was 4.97 ± 0.19%.

In the case of “MKFFLLLFTIGFCWAQYSPNTQQGRTSIVHLFEWRWVDIALECERYLAPKGFGGVQVSPPNENVAIHNPFRPWWERYQPVSYKLCTRSGNEDEFRNMVTRCNNVGVRIYVDAVINHMSGNAVSAGTSSTCGSYFNPGSRDFPAVPYSGWDFNDGKCKTGSGDIENYNDATQVRDCRLVGLLDLALEKDYVRSKIAEYMNHLIDIGVAGFRLDASKHMWPGDIKAILDKLHNLNSNWFPAGSKPFIYQEVIDLGGEPIKSSDYFGNGRVTEFKYGAKLGTVIRKWNGEKMSYLKNWGEGWGFMPSDRALVFVDNHDNQRGHGAGGASILTFWDARLYKMAVGFMLAHPYGFTRVMSSYRWPRQFQNGNDVNDWVGPPNNNGVIKEVTINPDTTCGNDWVCEHRWRQIRNMVNFRNVVDGQPFTNWYDNGSNQVAFGRGNRGFIVFNNDDWTFSLTLQTGLPAGTYCDVISGDKINGNCTGIKIYVSDDGKAHFSISNSAEDPFIAIHAESKL”, the “percentage of EdU-negative” value (MCF7; [3]) is reported as 25 ± 4.2%, the “percentage of EdU-negative” value (MCF7; protein concentration 0.225 µM) is reported as 31.3 ± 2.5% and the “percentage of EdU-negative” value (hTERT-HMEC; [3]) is reported as 6.12 ± 0.67%. For the same sequence, the “percentage of EdU-negative” value (hTERT-HMEC; protein concentration 0.225 µM) was 7.06 ± 0.1%.

In the case of “MKFFLLLFTIGFCWAQYSPNTQQGRTSIVHLFEWRWVDIALECERYLAPKGFGGVQVSPPNENVAIYNPFRPWWERYQPVSYKLCTRSGNEDEFRNMVTRCNNVGVRIYVDAVINHMCGNAVSAGTSSTCGSYFNPGSRDFPAVPYSGWDFNDGKCKTGSGDIENYNDATQVRDCRLTGLLDLALEKDYVRSKIAEYMNHLIDIGVAGFRLDASKHMWPGDIKAILDKLHNLNSNWFPAGSKPFIYQEVIDLGGEPIKSSDYFGNGRVTEFKYGAKLGTVIRKWNGEKMSYLKNWGEGWGFVPSDRALVFVDNHDNQRGHGAGGASILTFWDARLYKMAVGFMLAHPYGFTRVMSSYRWPRQFQNGNDVNDWVGPPNNNGVIKEVTINPDTTCGNDWVCEHRWRQIRNMVIFRNVVDGQPFTNWYDNGSNQVAFGRGNRGFIVFNNDDWSFSLTLQTGLPAGTYCDVISGDKINGNCTGIKIYVSDDGKAHFSISNSAEDPFIAIHAESKL”, the “percentage of EdU-negative” value (MCF7; [4]) is reported as 25.6 ± 0.39%, the “percentage of EdU-negative” value (MCF7; [5]) is reported as 26.4 ± 0.48% and the “percentage of EdU-negative” value (hTERT-HMEC; [4]) is reported as 5.1 ± 0.51%. For the same sequence, the “percentage of EdU-negative” value (hTERT-HMEC; [5]) was 11.4 ± 1.2%.

“MKFQGPLACLLLALCLGSGEAGPLQSGEESTGTNIGEALGHGLGDALSEGVGKAIGKEAGGAAGSKVSEALGQGTREAVGTGVRQVPGFGVADALGNRVGEAAHALGNTGHEIGRQAEDVIRHGADAVRGSWQGVPGHNGAWETSGGHGIFGSQGGLGGQGQGNPGGLGTPWVHGYPGNSAGSFGMNPQGAPWGQGGNGGPPNFGTNTQGAVAQPGYGSVRASNQNEGCTNPPPSGSGGGSSNSGGGSGSQSGSSGSGSNGDNNNGSSSGGSSSGSSSGGSSGGSSGGSSGNSGGSRGDSGSESSWGSSTGSSSGNHGGSGGGNGHKPGCEKPGNEARGSGESGIQNSETSPGMFNFDTFWKNFKSKLGFINWDAINKNQVPPPSTRALLYFSRLWEDFKQNTPFLNWKAIIEGADASSLQKRAGRDDQNYNYNQHAYPTAYGGKYSVKTPAKGGVSPSSSASRVQPGLLQWVKFW [Q6E0U4]” was tested, and the “percentage of EdU-negative” value (MCF7; [6]) was 27.8 ± 1.4%, the “percentage of EdU-negative” value (MCF7; protein concentration 0.095 µM) was 27.7 ± 1.7% and the “percentage of EdU-negative” value (hTERT-HMEC; [6]) was 4.68 ± 0.29%. For the same sequence, the “percentage of EdU-negative” value (hTERT-HMEC; protein concentration 0.095 µM) was 24.6 ± 4.2%.

For “MKFSPAHYLLPLLPALVLSTRQDYEELEKQLKEVFKERSTILRQLTKTSRELDGIKVNLQSLKNDEQSAKTDVQKLLELGQKQREEMKSLQEALQNQLKETSEKAEKHQATINFLKTEVERKSKMIRDLQNENKSLKNKLLSGNKLCGIHAEESKKIQAQLKELRYGKKDLLFKAQQLTDLEQKLAVAKNELEKAALDRESQMKAMKETVQLCLTSVFRDQPPPPLSLITSNPTRMLLPPRNIASKLPDAAAKSKPQQSASGNNESSQVESTKEGNPSTTACDSQDEGRPCSMKHKESPPSNATAETEPIPQKLQMPPCSECEVKKAPEKPLTSFEGMAAREEKIL [Q86TE4]”, the “percentage of EdU-negative” value (MCF7; [3]) was 26 ± 0.38%, the “percentage of EdU-negative” value (MCF7; protein concentration 0.225 µM) was 30.1 ± 1.1% and the “percentage of EdU-negative” value (hTERT-HMEC; [3]) was 5.34 ± 0.34%. The “percentage of EdU-negative” value (hTERT-HMEC; protein concentration 0.225 µM) was 8.84 ± 1.3%.

For “MKFTIVFAGLLGVFLAPALANYNINVNDDNNNAGSGQQSVSVNNEHNVANVDNNNGWDSWNSIWDYGNGFAATRLFQKKTCIVHKMNKEVMPSIQSLDALVKEKKLQGKGPGGPPPKGLMYSVNPNKVDDLSKFGKNIANMCRGIPTYMAEEMQEASLFFYSGTCYTTSVLWIVDISFCGDTVEN [Q9NS71]”, the “percentage of EdU-negative” value (MCF7; [7]) was 23 ± 2.2%, the “percentage of EdU-negative” value (MCF7; [8]) was 25.4 ± 3.5% and the “percentage of EdU-negative” value (hTERT-HMEC; [7]) was 4.8 ± 0.55%. For the same sequence, the “percentage of EdU-negative” value (hTERT-HMEC; [8]) was 5.56 ± 0.6%.

With “MKFTTLLFLAAVAGALVYAEDASSDSTGADPAQEAGTSKPNEEISGPAEPASPPETTTTAQETSAAAVQGTAKVTSSRQELNPLKSIVEKSILLTEQALAKAGKGMHGGVPGGKQFIENGSEFAQKLLKKFSLLKPWA [Q9GZZ8]” the “percentage of EdU-negative” value (MCF7; [3]) was 25.6 ± 1.3%, the “percentage of EdU-negative” value (MCF7; protein concentration 0.225 µM) was 24.5 ± 0.39% and the “percentage of EdU-negative” value (hTERT-HMEC; [3]) was 4.93 ± 0.13%. For the same sequence, the “percentage of EdU-negative” value (hTERT-HMEC; protein concentration 0.225 µM) was 5.83 ± 0.8%.
